Results: patent publication US20120195900A1 (AbbVie / Abbott, published 2012)
Where two headings read alike, the source gives them in different places.

Columns and labels:
hIL-13 = hIL-13 (human, UniProt P35225 35-146, limits assumed); assay: cell-based or functional assay
recombinant human IL-18 [1] = target: T1, recombinant human IL-18 (human, UniProt Q14116 37-193); assay: cell-based or functional assay
recombinant human IL-18 [2] = target: T1, recombinant human IL-18; assay: cell-based or functional assay; remark: listed apart in the source
human IL-12 [3] = target: T2, human IL-12 (human, UniProt P29459 23-219; P29460 23-328, biotinylated in the ELISA (site not stated)); assay: cell-based or functional assay
T2 sequence (looked up) 1: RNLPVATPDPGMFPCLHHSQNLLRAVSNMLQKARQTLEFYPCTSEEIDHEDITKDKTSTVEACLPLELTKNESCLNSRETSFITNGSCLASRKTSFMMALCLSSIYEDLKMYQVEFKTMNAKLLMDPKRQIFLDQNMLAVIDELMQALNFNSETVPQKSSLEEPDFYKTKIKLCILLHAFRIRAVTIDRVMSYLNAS
T2 sequence (looked up) 2: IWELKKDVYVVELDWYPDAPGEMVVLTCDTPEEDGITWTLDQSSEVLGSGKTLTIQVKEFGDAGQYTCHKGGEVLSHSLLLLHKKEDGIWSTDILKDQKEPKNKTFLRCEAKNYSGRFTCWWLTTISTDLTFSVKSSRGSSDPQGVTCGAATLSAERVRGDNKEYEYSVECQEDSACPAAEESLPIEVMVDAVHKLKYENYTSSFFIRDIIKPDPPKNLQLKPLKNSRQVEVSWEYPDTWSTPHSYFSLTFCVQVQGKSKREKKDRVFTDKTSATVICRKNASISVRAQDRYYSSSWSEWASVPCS

human IL-12 [4] = target: T2, human IL-12; assay: ELISA, biotinylated IL-12 on streptavidin plates, anti-human IgG detection (column head: ED50)
Protocol: Plates were washed five times with 1× PBST. Biotinylated IL-12 was diluted to 100 ng/ml in 10% superblock/PBST and 100 ml was added to each well. Plates were incubated for 2 hours at room temperature and then washed five times with 1× PBST. Control antibodies (human IgG and 1D4.1) and TVD-Igs were diluted to 1000 ng/ml and serially diluted 1:3 in 10% SB/PBST. Samples were added to the plate at 100 ml per well and incubated for 1 hour at RT. Plates were then washed five times. […] Plates were incubated for 1 hour at Room Temperature and then washed five times. […] Plates were read on a spectrophotometer at OD 450 nm. The EC50 values were determined using sigmoidal curve fit analysis from the binding curve.

hIL-13, sequence (P35225 35-146 limits assumed): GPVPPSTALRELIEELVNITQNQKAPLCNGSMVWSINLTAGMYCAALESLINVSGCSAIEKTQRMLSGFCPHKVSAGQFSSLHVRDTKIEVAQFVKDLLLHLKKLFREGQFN

B1: 13C5.5L3F (anti-IL-13 monoclonal antibody) (antibody, V domains shown)
VH: EVTLRESGPGLVKPTQTLTLTCTLYGFSLSTSDMGVDWIRQPPGKGLEWLAHIWWDDVKRYNPALKSRLTISKDTSKNQVVLKLTSVDPVDTATYYCARTVSSGYIYYAMDYWGQGTLVTVSS
VL: DIQMTQSPSSLSASVGDRVTISCRASQDIRNYLNWYQQKPGKAPKLLIFYTSKLHSGVPSRFSGSGSGTDYTLTISSLQPEDIATYYCQQGLTPPLTFGGGTKVEIKR
Question: Which “neutralization potency (IC50, nM), A-549 bioassay: TARC production” value (hIL-13) does the source give for B1 here?
Answer: 0.05 nM

B2: mAb 2.5 (anti-hIL-18 monoclonal antibody) (antibody, V domains shown)
VH: EVQLVQSGTEVKKPGESLKISCKGSGYTVTSYWIGWVRQMPGKGLEWMGFIYPGDSETRYSPTFQGQVTISADKSFNTAFLQWSSLKASDTAMYYCARVGSGWYPYTFDIWGQGTMVTVSS
VL: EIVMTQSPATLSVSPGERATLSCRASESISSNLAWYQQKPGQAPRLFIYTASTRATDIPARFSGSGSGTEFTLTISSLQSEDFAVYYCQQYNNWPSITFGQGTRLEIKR
Question: For B2, which “neutralization potency (IC50, nM), KG-1 bioassay: IFN-γ production” value (recombinant human IL-18 [1]) is on record?
Answer: 0.58 nM

Question: What about the “neutralization potency (IC50, nM), KG-1 bioassay: IFN-γ production” value (recombinant human IL-18 [2]) of the same binder?
Answer: 0.1 nM

B3: 1D4.1 (anti-hIL-12 monoclonal antibody) (antibody, V domains shown)
VH: EVTLRESGPALVKPTQTLTLTCTFSGFSLSKSVMGVSWIRQPPGKALEWLAHIYWDDDKYYNPSLKSRLTISKDTSKNQVVLTMTNMDPVDTATYYCARRGIRSAMDYWGQGTTVTVSS
VL: DIVMTQSPDSLAVSLGERATINCKASQSVSNDVAWYQQKPGQPPKLLIYYASNRYTGVPDRFSGSGSGTDFTLTISSLQAEDVAVYYCQQDYNSPWTFGGGTKVEIKR
notes: also called Control monoclonal antibody; parental monoclonal antibody 1D4.1
Question: B3 was tested. Which “neutralization potency (IC50, nM), human IL-12 bioassay: IFN-γ release from PHA blast cells” value (human IL-12 [3]) did it give?
Answer: 0.624 nM

Question: What about the EC50 (human IL-12 [4]) of the same binder?
Answer: 0.38 nM
